Experimental data published in paper doi:10.1101/2021.08.20.457137 (bioRxiv, 2021).

Legend:
[1] = biological target: lysozyme (Gallus gallus, UniProt P00698); assay: SEC
[2] = biological target: Lyso-Nb_4 K43A (alpaca scaffold, camel CDRs); assay: SPR
[3] = biological target: Lyso-Nb_4 L11A (alpaca scaffold, camel CDRs); assay: SPR
[4] = biological target: Lyso-Nb_4 P41A (alpaca scaffold, camel CDRs); assay: SPR
[5] = biological target: Lyso-Nb_4 R45A (alpaca scaffold, camel CDRs); assay: SPR
[6] = biological target: Lyso-Nb_4 S112A (alpaca scaffold, camel CDRs); assay: SPR
[7] = biological target: Lyso-Nb_4 V89A (alpaca scaffold, camel CDRs); assay: SPR
[8] = biological target: Lyso-Nb_4 W103A (alpaca scaffold, camel CDRs); assay: SPR
[9] = biological target: Lyso-Nb_4 Y91A (alpaca scaffold, camel CDRs); assay: SPR
[10] = biological target: TC-Nb4 (alpaca); assay: SPR
[11] = biological target: VcNorM (UniProt Q9KRU4); assay: SEC

B1: Lyso-Nb_4 (VHH)
VHH: QRQLVESGGGLVQPGGSLRLSCAASGSTDSIEYMTWFRQAPGKEREGVAALYTHTGNTYYADSVKGRFIISRDKAKNMVYLQMNSLEPEDTAVYYCGATRKYVPVRFALDQSSYDYWGKGTPVTVSS
- binding result [1]: binds

B2: NabFab (Fab, V domains shown)
VH: EVQLVESGGGLVQPGGSLRLSCAASGFNFSYYSIHWVRQAPGKGLEWVAYISSSSSYTSYADSVKGRFTISADTSKNTAYLQMNSLRAEDTAVYYCARGYQYWQYHASWYWNGGLDYWGQGTLVTVSS
VL: DIQMTQSPSSLSASVGDRVTITCRASQSVSSAVAWYQQKPGKAPKLLIYSASSLYSGVPSRFSGSRSGTDFTLTISSLQPEDFATYYCQQSSSSLITFGQGTKVEIK
- fold reduction of affinity against Lyso-Nb 4 [2]: < 5 fold
- fold reduction of affinity against Lyso-Nb 4 [3]: < 5 fold
- fold reduction of affinity against Lyso-Nb 4 [4]: 400 fold
- fold higher KD against Lyso-Nb 4 [5]: > 40 fold
- fold reduction of affinity against Lyso-Nb 4 [6]: < 5 fold
- fold reduction of affinity against Lyso-Nb 4 [7]: 600 fold
- fold reduction of affinity against Lyso-Nb 4 [8]: < 5 fold
- fold higher KD against Lyso-Nb 4 [9]: > 25 fold
- Kd [10]: 0.86 nM

B3: NorM-Nb17_4 (VHH)
VHH: QRQLVESGGGLVQPGGSLRLSCAASGIIFKINDMGWFRQAPGKEREGVAGITSGGRTNYADSVKGRFIISRDNVKNTVYLQMNSLEPEDTAVYYCKSDGLISYAASQLSTYWGKGTPVTVSS
- binding result [11]: binds
